Two molecules from PMC2674214 (PLoS ONE, 2009) can be followed below.

The target in assay [1] is T1, hemagglutinin (HA) of A/Anhui/1/2005 (H5N1) virus (Influenza A virus A/Anhui/1/2005 (H5N1), UniProt Q1WDM0). Kind of assay: ELISA. The following applies: one partner purified. A general note: In an ELISA, binding on a coated surface is turned into a signal by an enzyme label.
Assay [2] deals with T1, hemagglutinin (HA) of A/Anhui/1/2005 …. Nature of the assay: immunostaining of cells or tissue. Conditions: one partner purified.
The target in assay [3] is T2, rHA2 of AH/1/05 virus (Influenza A virus A/Anhui/1/2005 (H5N1), UniProt Q1WDM0, strain).
T2 construct: source: SF-9 cells infected with recombinant baculovirus (pAcUW51), on fixed cells
Nature of the assay: immunostaining of cells or tissue. Conditions: one partner purified.

In assay [4] the target is T3, rHA1 of AH/1/05 virus (Influenza A virus A/Anhui/1/2005 (H5N1), UniProt Q1WDM0, strain).
T3 construct: source: SF-9 cells infected with recombinant baculovirus (pAcUW51), on fixed cells
Nature of the assay: immunostaining of cells or tissue. The following applies: one partner purified.

Assay [5] has as its target T4, rHA of AH/1/05 virus (full length HA) (Influenza A virus A/Anhui/1/2005 (H5N1), UniProt Q1WDM0).
T4 construct: source: SF-9 cells infected with recombinant baculovirus (pAcUW51), on fixed cells
Kind of assay: immunostaining of cells or tissue. The following applies: one partner purified.

Assay [6] deals with rHA of clade 0 H5N1 virus A/HongKong/156/97 (Influenza A virus A/Hong Kong/156/1997 …, UniProt O56140). Nature of the assay: ELISA.

B1: AVFluFab03 (Fab, V domains shown)
VH: LESGGGLVQPGGSLRVSCTNSGFTFSDYAMSWVRQAPGKGLEWVSAISGNGGSSTYYADSVKGRFTISRDNSKNTMYLQMNSLRAEDTAVYYCVRDDSYDGGGQYGLHNWFDSWGQGTLVTV
VL: ELTQPPSVSGAPGQRVTISCTGSSSNIGAGYDVHWYQQLPGTAPKLLIYGNSNRPSGVPDRFSGSKSGTSASLAITGLQAEDEADYYCQSYDSSLVVFGGGTKLTVL
notes: also called Fab clone representing 25 of the 43 selected Fab clones; source: phagemid vector pComb3H, crude Fab antibody preparations
For the molecule B1, the binding result in assay [1] was “binds”.

B2: AVFluIgG03 (antibody, V domains shown)
VH: LESGGGLVQPGGSLRVSCTNSGFTFSDYAMSWVRQAPGKGLEWVSAISGNGGSSTYYADSVKGRFTISRDNSKNTMYLQMNSLRAEDTAVYYCVRDDSYDGGGQYGLHNWFDSWGQGTLVTV
VL: ELTQPPSVSGAPGQRVTISCTGSSSNIGAGYDVHWYQQLPGTAPKLLIYGNSNRPSGVPDRFSGSKSGTSASLAITGLQAEDEADYYCQSYDSSLVVFGGGTKLTVL
notes: also called rhAb AVFluIgG03; AVFluIg03; source: SF9 cells, purified on a Protein A column
Regarding B2, the binding result was “binds” in assay [2]; “no binding” in assay [3]; “binds” in assay [4]; “binds” in assay [5]; “no binding” in assay [6].
